From patent publication US20180003720A1 come the findings set out here.

The target of the test is γ-H2AX peptide standard (synthetic peptide …, serine at position 27 phosphorylated). The test can be described thus: sandwich chemiluminescent ELISA: plate-coated JBW301 captures the γ-H2AX peptide standard; detected with rabbit polyclonal anti-H2AX (Abcam) and goat anti-rabbit HRP.
γ-H2AX peptide standard (synthetic peptide …, serine at position 27 phosphorylated), sequence (peptide, as listed by the source): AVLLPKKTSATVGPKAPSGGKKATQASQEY

Consider “Anti-γ-H2AX (Ser139) mouse monoclonal antibody, clone JBW301 (Millipore)”, for which the Average RLU (n = 3) at 5 pM γH2AX standard amounted to 993000 RLU, the Average RLU (n = 3) at 10 pM γH2AX standard stood at 2.02e+06 RLU, the Average RLU (n = 3) at 20 pM γH2AX standard was found to be 4.6e+06 RLU and the Average RLU (n = 3) at 40 pM γH2AX standard was 1e+07 RLU. In addition, the Average RLU (n = 3) at 80 pM γH2AX standard stood at 2.08e+07 RLU, the Average RLU (n = 3) at 160 pM γH2AX standard stood at 3.74e+07 RLU, the Average RLU (n = 3) at 320 pM γH2AX standard turned out to be 5.88e+07 RLU and the Average RLU (n = 3) at 640 pM γH2AX standard amounted to 7.92e+07 RLU.
